Measurements published in patent US8715970B2, “Enzymatically catalyzed method of preparing mono-acylated polyols” (BASF SE, priority 2009, dated 2014).
Substitutions are numbered along the chain they refer to. Names and notes keep the numbering of the source.

B1: WT: non-mutated Candida antarctica lipase B (CALB), SEQ ID NO: 2, immobilized on carrier beads (protein, listed as Candida antarctica)
chain: LPSGSDPAFSQPKSVLDAGLTCQGASPSSVSKPILLVPGTGTTGPQSFDSNWIPLSAQLGYTPCWISPPPFMLNDTQVNTEYMVNAITTLYAGSGNNKLPVLTWSQGGLVAQWGLTFFPSIRSKVDRLMAFAPDYKGTVLAGPLDALAVSAPSVWQQTTGSALTTALRNAGGLTQIVPTTNLYSATDEIVQPQVSNSPLDSSYLFNGKNVQAQAVCGPLFVIDHAGSLTSQFSYVVGRSALRSTTGQARSADYGITDCNPLPANDLTPEQKVAAAALLAPAAAAIVAGPKQNCEPDLMPYARPFAVGKRTCSGIVTP
modifications: immobilized on carrier beads
B2: T40A: CALB mutant with single mutation Thr40Ala (SEQ ID NO: 4) (protein)
chain: B1 chain with T40X
modifications: T40 Mutant

What was measured:
Type in all cases: biochemical
[1] = Enzyme selectivities and specificities towards 1,4-butanediol with vinyl acetate or vinyl butyrate in MTBE (Example 7)
Protocol: (§1) Reactions using the CALB mutants as described in Example 5 and Example 6 were run with two different straight chain primary diols: 1,2-ethanediol, ≧99.5% from MERCK and 1,4-butanediol, ≧99% from Aldrich. Two different acyl donors were used: vinyl acetate, ≧99% from Fluka and vinyl butyrate, >99% from Fluka. Decane, ≧99% from Fluka, was used as internal standard. MTBE, 99.5% from Lab-Scan was used as solvent.
(§2) Each diol was dissolved to a concentration of 100 mM together with 1 M of the acyl donor and 20 mM decane in MTBE. Reactions were started by adding 3 ml reaction solution to a specific amount of enzyme carrier beads. Different amounts of enzyme carrier beads were used for the different reactions. For reactions with 1,2-ethanediol and vinyl acetate, 19.7 mg wild type, 22.5 mg A282L, 50.5 mg A281V, and 45.5 A281E CALB were used. […]
(§3) All reactions were analyzed on GC, Hewlett Packard 5890 series II. Two different 25 m×0.32 mm WCOT fused silica columns were used, depending on the different substrates and products that were analyzed. […] The response factor for each diol was determined in relationship to decane. When all diol and mono-ester had converted to di-ester, the response factor for the di-ester could be determined in relationship to decane. The concentration of mono-ester in each reaction was determined by subtracting the concentration of di-ester from the starting concentration of diol.

[2] = Acylation of 1,4-butanediol in competition with 1-butanol (Example 4)
Protocol: Additionally, 1-butanol, ≧99.5% from Riedel-de Haën, was used as a competing substrate.
25 mM decane ≧98% from Fluka, was used as internal standard.
Two different acyl donors were used:
Ethyl acetate, ≧99% from Fluka, used as both solvent and acyl donor
1 M Vinyl butyrate, >99% from Fluka, together with in MTBE, 99.5% from Lab-Scan, used as solvent.
Each diol was dissolved to a concentration of 100 mM together with 25 mM of decane in ethyl acetate, ≧99% from Fluka, used as acyl donor and solvent. Reactions were started by adding 3 ml reaction solution to 10 mg enzyme carrier beads loaded with wild-type CALB or 20 mg carrier beads loaded with T40A mutated CALB. Reactions were run at 29° C. in a temperature bath consisting of a HETO thermostat coupled to a Bom-roerder combined temperature bath and magnetic stirrer. 25 mM decane was used as internal standard were present in the reaction solution throughout both reaction and analysis. Aliquots of 60 μl were taken, filtered through wool in a Pasteur pipette together with 540 μl ethyl acetate prior to analysis. The filtration through wool removed any remaining enzyme from the reaction solution, and the reaction samples were diluted by a factor of 10 prior to analysis.
All reactions were analyzed on GC, Hewlett Packard 5890 series II. Two different 25 m×0.32 mm WCOT fused silica columns were used, depending on the different substrates and products that were analyzed. A polar GC-column with CP Chirasil-Dex CB coating was used for the reactions with 1,2-ethanediol. A non-polar GC-column with CP-SIL 5CB coating was used for the reactions with 1,4-butanediol.
(§4) The response factor for each diol was determined in relationship to decane. When all diol and mono-ester had converted to di-ester, the response factor for the di-ester could be determined in relationship to decane. The concentration of mono-ester in each reaction was determined by subtracting the concentration of di-ester from the starting concentration of diol.

[3] = Enzyme-catalyzed acylation of 2-methyl-1,3-propanediol with vinyl butyrate as acyl donor (Example 3); conditions: 2-methyl-1,3-propanediol 10 mM, 200 mM vinyl butyrate in MTBE, 29° C.
Protocol: (§5) Each diol was dissolved to a concentration of 10 mM together with 2 mM of decane ≧98% from Fluka and 200 mM vinyl butyrate >99% from Fluka in MTBE 99.5% from Lab-Scan, which was used as acyl donor and solvent. Reactions were started by adding 4 ml reaction solution to 20 mg enzyme carrier beads loaded with either wild-type or T40A mutated CALB. Reactions were run at 29° C. on a HLC rotating thermo block. Aliquots of 50 μl were taken, filtered through wool in a Pasteur pipette and diluted with 50 μl ethyl acetate prior to analysis. The decane used as internal standard were present in the reaction solution throughout both reaction and analysis.
(§6) All reactions were analyzed on GC, Hewlett Packard 5890 series II. A 25 m×0.32 mm WCOT fused silica non-polar GC-column with CP-SIL 5CB coating was used for the reactions.
as §4

[4] = Enzyme selectivities and specificities towards 1,2-ethanediol with vinyl acetate or vinyl butyrate in MTBE (Example 7)
Protocol: as §1, §2, §3

[5] = Enzyme-catalyzed acylation of 1,4-butanediol with vinyl butyrate as acyl donor (Example 3); conditions: 1,4-butanediol 10 mM, 200 mM vinyl butyrate in MTBE, 29° C.
Protocol: as §5, §6, §4

Row | Molecule | Initial reaction rates ([1]; vinyl acetate) [mol/g/min] | Initial reaction rates ([1]; vinyl butyrate) [mol/g/min] | Initial reaction rates ([2]; ethyl acetate) [mol/g/min] | Initial reaction rates ([2]; vinyl butyrate) [mol/g/min] | Maximum monoester yields [3] [%] | Initial reaction rates ([4]; vinyl acetate) [mol/g/min] | Initial reaction rates ([4]; vinyl butyrate) [mol/g/min] | Maximum monoester yields [5] [%] | Rate ratio, T40A/WT ([2]; ethyl acetate) [%] | Selectivity towards diol over 1-butanol, compared with wild type CALB ([2]; ethyl acetate as acyl donor and solvent (FIG. 9B)) | Rate ratio, T40A/WT ([2]; vinyl butyrate) [%] | Selectivity towards diol over 1-butanol, compared with wild type CALB ([2]; vinyl butyrate, MTBE (FIG. 10B))
1 | B1 | 0.12 | 0.24 | 0.065 | 0.16 | 34 | 0.21 | 0.36 | 25 |  |  |  | 
2 | B2 |  |  | 0.0008 | 0.016 | 56 |  |  | 44 | 1.2 | higher | 9.6 | higher
